According to the supplement of paper PMC11865577:

system: TO-3-N3-2 (biotin conjugate); experiment: pull-down binding Z-score (relative to library population); higher = stronger binding; settings: RNA library: Library-2
Outline: (§1)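 Binding is given as a Z-score against the library mean and standard deviation, calculated after removing the beads-only signal and averaging barcoded replicate probes without their highest and lowest values. Cy5- or Cy3-end-labelled RNA library (1 μg) was heat-folded in phosphate/NaCl/KCl buffer and incubated 60 min at 25 °C with streptavidin beads bearing 100 pmol of biotin-conjugated small molecule. After three washes, RNA eluted in hot SDS was hybridised to a DNA barcode microarray for 20 h at 55.5 °C.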

| Sequence | pull-down binding Z-score |
| --- | --- |
| GCCAGCAACCUGAUUACCCCUCUUUGGC [hsa-mir-6851] | -0.495 |
| GCCAGUCAGCGCUCACAUUAAGGCUGAC [hsa-mir-2277] | -0.0851 |
| GCCAGUGUGUAAAAUGAGAACUGAUA [hsa-mir-3074] | 0.757 |
| GCCAGUGUUCAAGGGCCCCUCCUCUAGUACUCCCUGUUUGUGUUCUGCCACUGA [hsa-mir-6857] | 0.527 |
| GCCAUCUGGUUGUGACAUCACUGAUGGC [hsa-mir-7155] | 0.0839 |
| GCCAUGGAAAGUAAUGGC [hsa-mir-548ax] | -0.112 |
| GCCCCAGGGCAGGGGC [hsa-mir-4515] | -0.473 |
| GCCCGCUGUGUUCACUCGGGC [hsa-mir-602] | -0.556 |
| GCCCGGGCACCGCCCCUU [hsa-mir-718] | -0.109 |
| GCCCUGGGCCGGGCGAUGUCCGCUUGGGGG [hsa-mir-6090] | 0.149 |
| GCCGCGGAAGAAGGGGAAGCGC [hsa-mir-6720] | 0.61 |
| GCCGGAGCGGGC [hsa-mir-1181] | 0.0808 |
| GCCGGGGCCUGGCGCUCCUCUACCUUGUCAGGUGACCCAGC [hsa-mir-4274] | -0.179 |
| GCCUCCUGGAUCUCUAGGUCUCAGGGC [hsa-mir-6744] | -0.302 |
| GCCUCGCUUCCUGCCGGCGCGGC [hsa-mir-1538] | -0.601 |
| GCCUCUCUGAGCAUGCAUUCCUGAGACUC [hsa-mir-5695] | 0.0721 |

system: TO-N3 (biotin conjugate); experiment: as above; settings: RNA library: Library-2
Outline: as §1

| Sequence | pull-down binding Z-score |
| --- | --- |
| GCAGGCCGUGAACUCGUCGAGCUGCGCGUGCGGCCGGUGCUCA [hsa-mir-1199] | 1.47 |
| GCAGGGACCCCUCCAAGUUGGGGACGGCAGC [hsa-mir-6858] | 0.676 |
| GCAGGUAGCUUUUUGAGAUCUACUGC [hsa-mir-106a] | -0.711 |
| GCAGUCCUGUGGGAAUGAGAGAUGCCAAACUGGACCUGC [hsa-mir-3972] | 1.4 |
| GCAGUCUGCUUUGUGCCAACACUGGGGUGAUGACUGC [hsa-mir-3157] | 0.442 |
| GCAGUGUCGUGGUCACAGCUUGCUGC [hsa-mir-1273h] | -0.0941 |
| GCAUAAAAACAACUUUUGGGGGACAGGUAUGUUUUCUUGC [hsa-mir-5047] | 2.3 |
| GCAUAUAGAGUAUAUGC [hsa-mir-4657] | -0.435 |
| GCAUCCAGACAGCGGGCGAAUGC [hsa-mir-6836] | 0.33 |
| GCAUCCUUGGAAUCUGCACUCAAGGGAUGC [hsa-mir-5089] | 0.358 |
| GCAUGCCC [hsa-mir-1178] | 0.287 |
| GCAUGGGGCUAGGAGGCCCCGCGC [hsa-mir-6825] | 0.391 |
| GCAUUUUAUCUAAGAUACACACAAAGCAAAUGC [hsa-mir-4439] | 0.118 |
| GCCACAUGAGCUGGGCCUCGUGGGC [hsa-mir-770] | 0.189 |
| GCCAGACAUGCUCUUGC [hsa-mir-6894] | -0.472 |
| GCCAGAUGCUGAGCGAUGGC [hsa-mir-4730] | -0.217 |

| Sequence | pull-down binding Z-score |
| --- | --- |
| GCCAGCAACCUGAUUACCCCUCUUUGGC [hsa-mir-6851] | -0.552 |
| GCCAGUCAGCGCUCACAUUAAGGCUGAC [hsa-mir-2277] | -0.222 |
| GCCAGUGUGUAAAAUGAGAACUGAUA [hsa-mir-3074] | 1.14 |
| GCCAGUGUUCAAGGGCCCCUCCUCUAGUACUCCCUGUUUGUGUUCUGCCACUGA [hsa-mir-6857] | 1.1 |
| GCCAUCUGGUUGUGACAUCACUGAUGGC [hsa-mir-7155] | 0.932 |
| GCCAUGGAAAGUAAUGGC [hsa-mir-548ax] | -0.269 |
| GCCCCAGGGCAGGGGC [hsa-mir-4515] | -0.583 |
| GCCCGCUGUGUUCACUCGGGC [hsa-mir-602] | -0.398 |
| GCCCGGGCACCGCCCCUU [hsa-mir-718] | 0.203 |
| GCCCUGGGCCGGGCGAUGUCCGCUUGGGGG [hsa-mir-6090] | 1.11 |
| GCCGCGGAAGAAGGGGAAGCGC [hsa-mir-6720] | 1.61 |
| GCCGGAGCGGGC [hsa-mir-1181] | 0.703 |
| GCCGGGGCCUGGCGCUCCUCUACCUUGUCAGGUGACCCAGC [hsa-mir-4274] | 0.538 |
| GCCUCCUGGAUCUCUAGGUCUCAGGGC [hsa-mir-6744] | -0.272 |
| GCCUCGCUUCCUGCCGGCGCGGC [hsa-mir-1538] | -0.389 |
| GCCUCUCUGAGCAUGCAUUCCUGAGACUC [hsa-mir-5695] | 0.481 |

system: TO-N3-2 (biotin conjugate); experiment: as above; settings: RNA library: Library-2
Outline: as §1

| Sequence | pull-down binding Z-score |
| --- | --- |
| GCAGGCCGUGAACUCGUCGAGCUGCGCGUGCGGCCGGUGCUCA [hsa-mir-1199] | 2.02 |
| GCAGGGACCCCUCCAAGUUGGGGACGGCAGC [hsa-mir-6858] | 1.09 |
| GCAGGUAGCUUUUUGAGAUCUACUGC [hsa-mir-106a] | -0.248 |
| GCAGUCCUGUGGGAAUGAGAGAUGCCAAACUGGACCUGC [hsa-mir-3972] | 1.38 |
| GCAGUCUGCUUUGUGCCAACACUGGGGUGAUGACUGC [hsa-mir-3157] | 0.186 |
| GCAGUGUCGUGGUCACAGCUUGCUGC [hsa-mir-1273h] | 1.12 |
| GCAUAAAAACAACUUUUGGGGGACAGGUAUGUUUUCUUGC [hsa-mir-5047] | 0.797 |
| GCAUAUAGAGUAUAUGC [hsa-mir-4657] | -0.526 |
| GCAUCCAGACAGCGGGCGAAUGC [hsa-mir-6836] | 1.13 |
| GCAUCCUUGGAAUCUGCACUCAAGGGAUGC [hsa-mir-5089] | 0.0295 |
| GCAUGCCC [hsa-mir-1178] | 0.552 |
| GCAUGGGGCUAGGAGGCCCCGCGC [hsa-mir-6825] | 0.142 |
| GCAUUUUAUCUAAGAUACACACAAAGCAAAUGC [hsa-mir-4439] | -0.81 |
| GCCACAUGAGCUGGGCCUCGUGGGC [hsa-mir-770] | 0.565 |
| GCCAGACAUGCUCUUGC [hsa-mir-6894] | 0.707 |
| GCCAGAUGCUGAGCGAUGGC [hsa-mir-4730] | 0.603 |

| Sequence | pull-down binding Z-score |
| --- | --- |
| GCCAGCAACCUGAUUACCCCUCUUUGGC [hsa-mir-6851] | 0.533 |
| GCCAGUCAGCGCUCACAUUAAGGCUGAC [hsa-mir-2277] | 0.0682 |
| GCCAGUGUGUAAAAUGAGAACUGAUA [hsa-mir-3074] | 1.66 |
| GCCAGUGUUCAAGGGCCCCUCCUCUAGUACUCCCUGUUUGUGUUCUGCCACUGA [hsa-mir-6857] | 1.37 |
| GCCAUCUGGUUGUGACAUCACUGAUGGC [hsa-mir-7155] | 0.128 |
| GCCAUGGAAAGUAAUGGC [hsa-mir-548ax] | 0.319 |
| GCCCCAGGGCAGGGGC [hsa-mir-4515] | -0.972 |
| GCCCGCUGUGUUCACUCGGGC [hsa-mir-602] | -0.52 |
| GCCCGGGCACCGCCCCUU [hsa-mir-718] | 0.973 |
| GCCCUGGGCCGGGCGAUGUCCGCUUGGGGG [hsa-mir-6090] | 1.41 |
| GCCGCGGAAGAAGGGGAAGCGC [hsa-mir-6720] | 1.86 |
| GCCGGAGCGGGC [hsa-mir-1181] | 0.58 |
| GCCGGGGCCUGGCGCUCCUCUACCUUGUCAGGUGACCCAGC [hsa-mir-4274] | 0.434 |
| GCCUCCUGGAUCUCUAGGUCUCAGGGC [hsa-mir-6744] | 0.118 |
| GCCUCGCUUCCUGCCGGCGCGGC [hsa-mir-1538] | 0.147 |
| GCCUCUCUGAGCAUGCAUUCCUGAGACUC [hsa-mir-5695] | 0.547 |
